Assay results from patent US20100047237A1.

Legend:
[1] = molecular target: ALys amyloid fibrils extracted from human amyloidotic tissue (human) (UniProt P61626); assay: 125I-SAP binding to fibrils; ALys fibrils at 0.02 A280-A320 units/ml; mean of 2 replicates
[2] = molecular target: ALys amyloid fibrils extracted from human amyloidotic tissue (human) (UniProt P61626); assay: 125I-SAP binding to fibrils; ALys fibrils at 0.05 A280-A320 units/ml; mean of 2 replicates
[3] = molecular target: ALys amyloid fibrils extracted from human amyloidotic tissue (human) (UniProt P61626); assay: 125I-SAP binding to fibrils; ALys fibrils at 0.2 A280-A320 units/ml; mean of 2 replicates
[4] = molecular target: ALys amyloid fibrils extracted from human amyloidotic tissue (human) (UniProt P61626); assay: 125I-SAP binding to fibrils; ALys fibrils at 0.002 A280-A320 units/ml; mean of 2 replicates

- % ^125I-SAP counts bound [1]: 45%
- % ^125I-SAP counts bound [2]: 72%
- % ^125I-SAP counts bound [3]: 79%
- % ^125I-SAP counts bound [4]: 7%
Substance: human serum amyloid P component (SAP), 125I-labelled (from UniProt P02743 20-223)
